# How the values were obtained:
# [1] = biological target: Ribokinase of Halorhabdus tiamatea (HTIA_0439) (Halorhabdus tiamatea); assay: SEC; Superdex 200 HiLoad column (1.6 by 60 cm), flow rate 1 ml/min, calibrated with the HMW and LMW kits; oligomeric state from the native mass and the calculated subunit mass
# [2] = biological target: Ribose-5-phosphate isomerase of Halorhabdus utahensis (Huta_0832) (Halorhabdus utahensis); assay: as above
# [3] = substrate: Nc1ncnc2c1ncn2[C@@H]1O[C@H](COP(=O)(O)OP(=O)(O)OP(=O)(O)O)[C@@H](O)[C@H]1O; assay: coupled pyruvate kinase/lactate dehydrogenase assay (NADH); format: biochemical, Halorhabdus tiamatea; details: D-ribose co-substrate (5 mM standard), 42 °C, pH 7.5 bis-tris, 1.5 M KCl, 10 mM MgCl2
# [4] = biological target: the molecule itself; assay: SEC; Superdex 200 HiLoad column (1.6 by 60 cm), flow rate 1 ml/min, calibrated with the HMW and LMW kits; oligomeric state from the native mass and the calculated subunit mass
# [5] = substrate: Nc1ncnc2c1ncn2[C@@H]1O[C@H](COP(=O)(O)OP(=O)(O)OP(=O)(O)O)[C@@H](O)[C@H]1O; assay: coupled pyruvate kinase/lactate dehydrogenase assay (NADH); format: biochemical, Halorhabdus utahensis; details: 37 °C
# [6] = substrate: O=C(CO)[C@@H](O)[C@H](O)CO; assay: as above; format: biochemical, Halorhabdus utahensis; details: ATP co-substrate (12.5 mM standard), 37 °C, pH 8.0, 2 M KCl, 10 mM MgCl2
# [7] = substrate: O=C(CO)[C@@H](O)[C@@H](O)CO; assay: as above; format: biochemical, Halorhabdus utahensis; details: ATP co-substrate (10 mM standard), 37 °C, pH 8.0, 1.5 M KCl, 50 mM MgCl2
molecule,measurement,setting,value
Ribokinase of Halorhabdus tiamatea (HTIA_0439) (enzyme),stoichiometry N,[1],2
Ribose-5-phosphate isomerase of Halorhabdus utahensis (Huta_0832) (enzyme),stoichiometry N,[2],4
"ribokinase (HTIA_0439) (Halorhabdus tiamatea SARL4B) (protein, full length, overexpressed, recombinant (Haloferax volcanii H1209, pTA963, His tag by general methods)) MGNVYVAGSINQDIAVRLERRPQPGETVPGESASFGLGGKGANQAIAAARSGAAVELIGAVGDDRFGEELLADLDTEDGLSTAGVHRASNTSTGVALITVDADSENAIVAVPGANAALAPADVGDVGMEDDAVVLSQFEIPQPTIRTFFEQAHAQGARTVLNPAPAETVREDLLERVDFLVVNETEALFYADGDSKGQLSQDELVETAAALRTHDEQVVVVTLGEAGVFASTPSETIELDAYAVDPVDTTGAGDAFVGAFATALGDGLRLRDALDVGAAAGALATTQTGAAPSLPTRAAIEDLRADE",Km,[3],0.1 mM
"Xylulokinase of Halorhabdus utahensis (Huta_2446) (enzyme, UniProt C7NMH3 1-515, looked up, xylulokinase, Halorhabdus utahensis, gene Huta_2446 (1548 nucleotides); calculated subunit mass 55.1 kDa; Gene amplified from genomic DNA and cloned into pTA963; source: Haloferax volcanii H1209, purified (Ni-NTA, size-exclusion chromatography, Phenyl-Sepharose)) MGLDLGTSGVKTLVADADGEVLATNTEEYPLYQPEVGWSEQDPADWWAATLDGIEAVLEDPAVDPEDVEALGLTGQMHGSVFLDGEGEVLRPAILWNDTRTSAQCDEIEERVGEDRIIELASNPPFEGFTAPKILWVQEHEPEVYDQTESILLPKDFIRYKLTEAFATDVSDASGTLLLDVGERDWSPEILDELDISRDLLPEVYESPEVTGAVTDAVAERTGLPAGTPVVAGAGDNAAGAVGSGVVGDGDVWGSIGTSGVIFVATDDERTDPEGRVHTFCHAVPDTWHVMGVMLSAGGAFSWFSETLGGPEEVVADQLGKDAFEVLTDEAATVDPGSEGLIFLPYLNGERTPHRDADARGAFFGLSTRHDKSHVVRSVLEGVTYGLRDSFRIVRDDLGVDTGQLKAAGGGAKSPLWKQIQADIFDAEILTPNVDEGPAYGSALLAGVGADVYDNVADATEQAVDIVDSVEPIDQHTRVYDEYYEIYESLYPALEDSFAANSAAIESAQDILDEA",stoichiometry N,[4],2
same,Km,"[5]; D-xylulose co-substrate (10 mM standard), pH 8.0, 2 M KCl, 10 mM MgCl2",5.68 mM
same,Km,[6],0.31 mM
"Ribulokinase of Halorhabdus utahensis (Huta_1150) (enzyme, UniProt C7NMB8 1-512, looked up, ribulokinase, Halorhabdus utahensis, gene Huta_1150 (1539 nucleotides); calculated subunit mass 56.1 kDa; Gene amplified from genomic DNA and cloned into pTA963; also called L-ribulokinase; source: Haloferax volcanii H1209, purified (Ni-NTA, size-exclusion chromatography)) MDGQYLVGTDIGTNSTKTILVSPEGEVLGTGNAGYEVEQPEPSWAQQWPDVWVEATYDSIQQAIDEAEVDPSEIRGISISSLYGGAGVPLDSEGEPVYPCLIWMDRRATDQVEWVKENVDLDRLFEITGNYVDSYYGYTKIRWIKEHEPEVWDDIENFVPPNNYVEYVMTDELAVDYSSAGNVGGVFDIHDLAWSEEACEMLEIPIEKFPERLVPTEEIVGEVTADAAEASGLPEGTPVLAGGVDAPMATLAAGAFEEGDNVSMMGTSTCWGTIHEGAGLDQQLVSMPHVAEGEEKIYTWGGSATTGGLIEWFKDEFGGPEEQAGELVDVDPFELLNMKAEEIPAGSEGLVALPYFKGERSPIWDPDARGMFTGLSLYHGKSHMYRALMEAGGYSLRHNVEVAEEIGIPLNDETSVVGGVSNSELWMQILADVTGRRMEVPAGGVGAPLGDALVVGVGTGLFEDYDVATEWTETGEVYTPEPENVDTYDEYYDIYKRLYQNTKDEMHDLAQL",stoichiometry N,[4],6
same,Km,"[5]; L-ribulose co-substrate (1 mM standard), pH 8.0, 1.5 M KCl, 50 mM MgCl2",4.2 mM
same,Km,[7],0.55 mM
"Arabinose isomerase of Halorhabdus utahensis (Huta_1154) (enzyme, UniProt C7NML7 1-495, looked up, arabinose isomerase, Halorhabdus utahensis, gene Huta_1154 (1488 nucleotides); calculated subunit mass 55.4 kDa; Gene amplified from genomic DNA and cloned into pTA963; source: Haloferax volcanii H1209, purified (Ni-NTA, size-exclusion chromatography)) MSPIPHGTDFDDLEVWFLTGSQHLYGEETLDLVAEDAREVAAGLDDDDRIPVSVEFKSVLTTADAIESVVREANASEDCIGLITWMHTFSPAKMWIRGLQALDVPFVHLHTQFNRELPYDEIDMDFMNANQSAHGGREFGHIVSRLDIDRKVVVGHWEDDDVREQLDTWARAAAARHELRGAKIARFGDNMRDVAVTEGDKVSAQMAFGASVDGYGLGDLVEFVEDVTESEIDDLLEEYDQQYELAAELQADGDRRDSLREAARIELGIRAFLEDGEFVGFTTTFENLTGLSQLPGLAVQRLMADGYGFGPEGDWKSALLTRAMKVMGQGLNGGTSLMEHYTYDLTEGDEKVLGAHMLEICESIAGEQPRLEIHPLDIGGKADPVRAVFDADTGPAINASLVDMGDRFRLITNDVESVGPDEPLPELPVARAVWKPEPDFETAIEAWIKAGGAHHTGYSQAVTNEHLEDFASMTGIEHLHVGADTDIADVERKLS",stoichiometry N,[4],6
"Xylose isomerase of Halorhabdus utahensis (Huta_2443) (enzyme, UniProt C7NMH0 1-438, looked up, xylose isomerase, Halorhabdus utahensis, gene Huta_2443 (1317 nucleotides); calculated subunit mass 49.3 kDa; Gene amplified from genomic DNA and cloned into pTA963; Elution from Ni-NTA implies a His tag; also called class II xylose isomerase; source: Haloferax volcanii H1209, purified (Ni-NTA, size-exclusion chromatography)) MSEYFPEIDEITYEGPDSQDPLSFSYYDPEKQVGEKTMAEHLRFSVAYWHTLREDGSDPFGAGTMQRPWDDIDDPMEKAHARVDAAFEFFEKLGVPYFCFHDRDIAPKGEDLAESNENLDEIVDHVEEKIDETGVELLWGTAQLFMEPKFAHGAATSPNPDVFAHAAGQVKKAMEVTERLGGENFVFWGGREGYKTLLNSDMGRELDNMGRFFRMAADYADDIGFDGQLLIEPKPKEPTKHQYDFDAANVMAFLREYGLEDRFNLNLEANHATLAGHTFRHELQYARVNDALGSVDANQGDKLIGWDTDEFPTDVYMTTLAMYEVLENDGIAPGGLNFDAKVRRESFEPVDLFYGHVVGMDTFARGLEVAHELREDGVFADVIDDRYGYDAGIGAEIAAESTDFEALAEYALENDGIELESGRQEKLKAVLNSYILES",stoichiometry N,[4],4
